{"source": "paper PMC3162391", "about": "(The Journal of Biological Chemistry, 2011)", "proteins": {"B1": {"name": "CD5 BRET pair (CD5Luc and CD5GFP) (receptor, human, UniProt P06127 25-495, looked up)", "chain": "RLSWYDPDFQARLTRSNSKCQGQLEVYLKDGWHMVCSQSWGRSSKQWEDPSQASKVCQRLNCGVPLSLGPFLVTYTPQSSIICYGQLGSFSNCSHSRNDMCHSLGLTCLEPQKTTPPTTRPPPTTTPEPTAPPRLQLVAQSGGQHCAGVVEFYSGSLGGTISYEAQDKTQDLENFLCNNLQCGSFLKHLPETEAGRAQDPGEPREHQPLPIQWKIQNSSCTSLEHCFRKIKPQKSGRVLALLCSGFQPKVQSRLVGGSSICEGTVEVRQGAQWAALCDSSSARSSLRWEEVCREQQCGSVNSYRVLDAGDPTSRGLFCPHQKLSQCHELWERNSYCKKVFVTCQDPNPAGLAAGTVASIILALVLLVVLLVVCGPLAYKKLVKKFRQKKQRQWIGPTGMNQNMSFHRNHTATVRSHAENPTASHVDNEYSQPPRNSHLSAYPALEGALHRSSMQPDNSSDSDYDLHGAQRL"}}, "molecular_target": "the molecule itself", "assay": "FRET or BRET", "data": [{"protein": "B1", "values": [{"measurement": "stoichiometry N", "value": 2}]}]}
